In the supplement of paper PMC11246515:
± gives the standard deviation of the averaged measurements.

Test: total protein half-life in vivo (active degradation + dilution); higher = more stable protein
[1] = E. coli NCM3722 delta-clpP delta-lon delta-hslV, growth: N-lim chemostat, doubling time 6 h
[2] = E. coli NCM3722 delta-clpP, growth: N-lim chemostat, doubling time 6 h
[3] = E. coli NCM3722 delta-hslV, growth: N-lim chemostat, doubling time 6 h
[4] = E. coli NCM3722 delta-lon, growth: N-lim chemostat, doubling time 6 h
[5] = E. coli NCM3722 delta-smpB, growth: N-lim chemostat, doubling time 6 h
[6] = wild type E. coli NCM3722, growth: C-lim chemostat, doubling time 3 h
[7] = wild type E. coli NCM3722, growth: C-lim chemostat, doubling time 6 h
[8] = wild type E. coli NCM3722, growth: C-lim chemostat, doubling time 12 h
[9] = wild type E. coli NCM3722, growth: N-lim chemostat, doubling time 6 h
[10] = wild type E. coli NCM3722, growth: N-lim chemostat, doubling time 12 h
[11] = wild type E. coli NCM3722, growth: P-lim chemostat, doubling time 6 h
[12] = wild type E. coli NCM3722, growth: P-lim chemostat, doubling time 12 h

Row | Sequence | total protein half-life in vivo [1] [h] | total protein half-life in vivo [2] [h] | total protein half-life in vivo [3] [h] | total protein half-life in vivo [4] [h] | total protein half-life in vivo [5] [h] | total protein half-life in vivo [6] [h] | total protein half-life in vivo [7] [h] | total protein half-life in vivo [8] [h] | total protein half-life in vivo [9] [h] | total protein half-life in vivo [10] [h] | total protein half-life in vivo [11] [h] | total protein half-life in vivo [12] [h]
1 | MSNNGSSPLVLWYNQLGMNDVDRVGGKNASLGEMITNLSGMGVSVPNGFATTADAFNQFLDQSGVNQRIYELLDKTDIDDVTQLAKAGAQIRQWIIDTPFQPELENAIREAYAQLSADDENASFAVRSSATAEDMPDASFAGQQETFLNVQGFDAVLVAVKHVFASLFNDRAISYRVHQGYDHRGVALSAGVQRMVRSDLASSGVMFSIDTESGFDQVVFITSAWGLGEMVVQGAVNPDEFYVHKPTLAANRPAIVRRTMGSKKIRMVYAPTQEHGKQVKIEDVPQEQRDIFSLTNEEVQELAKQAVQIEKHYGRPMDIEWAKDGHTGKLFIVQARPETVRSRGQVMERYTLHSQGKIIAEGRAIGHRIGAGPVKVIHDISEMNRIEPGDVLVTDMTDPDWEPIMKKASAIVTNRGGRTCHAAIIARELGIPAVVGCGDATERMKDGENVTVSCAEGDTGYVYAELLEFSVKSSSVETMPDLPLKVMMNVGNPDRAFDFACLPNEGVGLARLEFIINRMIGVHPRALLEFDDQEPQLQNEIREMMKGFDSPREFYVGRLTEGIATLGAAFYPKRVIVRLSDFKSNEYANLVGGERYEPDEENPMLGFRGAGRYVSDSFRDCFALECEAVKRVRNDMGLTNVEIMIPFVRTVDQAKAVVEELARQGLKRGENGLKIIMMCEIPSNALLAEQFLEYFDGFSIGSNDMTQLALGLDRDSGVVSELFDERNDAVKALLSMAIRAAKKQGKYVGICGQGPSDHEDFAAWLMEEGIDSLSLNPDTVVQTWLSLAELKK | 4.83 ± 0.48 | 4.47 ± 0.29 | 4.6 ± 0.19 | 4.853 ± 0.045 | 4.21 ± 0.38 | 3.08 ± 0.22 | 5.77 ± 0.31 | 10.1 ± 1 | 4.5 ± 0.17 | 7.03 ± 0.19 | 5.9 ± 0.38 | 11.7 ± 0.34
2 | MSNPILSWRRVRALCVKETRQIVRDPSSWLIAVVIPLLLLFIFGYGINLDSSKLRVGILLEQRSEAALDFTHTMTGSPYIDATISDNRQELIAKMQAGKIRGLVVIPVDFAEQMERANATAPIQVITDGSEPNTANFVQGYVEGIWQIWQMQRAEDNGQTFEPLIDVQTRYWFNPAAISQHFIIPGAVTIIMTVIGAILTSLVVAREWERGTMEALLSTEITRTELLLCKLIPYYFLGMLAMLLCMLVSVFILGVPYRGSLLILFFISSLFLLSTLGMGLLISTITRNQFNAAQVALNAAFLPSIMLSGFIFQIDSMPAVIRAVTYIIPARYFVSTLQSLFLAGNIPVVLVVNVLFLIASAVMFIGLTWLKTKRRLD [P0AFQ2] | 6.67 ± 0.81 | 5.62 | 6.1 | 5.56 | 6.04 ± 0.15 | – | 5.36 | 12.8 | 6.36 ± 0.5 | 12.5 ± 3.1 | – | 12.6 ± 0.43
3 | MSNWPYPRIVAHRGGGKLAPENTLASIDVGAKYGHKMIEFDAKLSKDGEIFLLHDDNLERTSNGWGVAGELNWQDLLRVDAGSWYSKMFKGEPLPLLSQVAERCREHGMMANIEIKPTTGTGPLTGKMVALAARELWAGMTPPLLSSFEIDALEAAQQAAPELPRGLLLDEWRDDWRELTARLGCVSIHLNHKLLNKARVMQLKDAGLRILVYTVNKPQRAAELLRWGVDCICTDAIDVIGPNFTAQ | 4.77 ± 0.94 | 3.75 ± 0.46 | 3.65 ± 0.043 | 4.1 ± 0.021 | 3.72 ± 0.12 | 3.33 ± 0.72 | 5.491 ± 0.049 | 9.38 ± 0.43 | 3.87 ± 0.31 | 6.08 ± 0.18 | 5.07 ± 0.11 | 9.88 ± 0.3
4 | MSQDNNFSQGPVPQSARKGVLALTFVMLGLTFFSASMWTGGTLGTGLSYHDFFLAVLIGNLLLGIYTSFLGYIGAKTGLTTHLLARFSFGVKGSWLPSLLLGGTQVGWFGVGVAMFAIPVGKATGLDINLLIAVSGLLMTVTVFFGISALTVLSVIAVPAIACLGGYSVWLAVNGMGGLDALKAVVPAQPLDFNVALALVVGSFISAGTLTADFVRFGRNAKLAVLVAMVAFFLGNSLMFIFGAAGAAALGMADISDVMIAQGLLLPAIVVLGLNIWTTNDNALYASGLGFANITGMSSKTLSVINGIIGTVCALWLYNNFVGWLTFLSAAIPPVGGVIIADYLMNRRRYEHFATTRMMSVNWVAILAVALGIAAGHWLPGIVPVNAVLGGALSYLILNPILNRKTTAAMTHVEANSVE [P0AA82] | – | 0.878 ± 0.056 | – | – | – | 2.01 | – | – | – | – | – | –
5 | MSQEYIEDKEVTLTKLSSGRRLLEALLILIVLFAVWLMAALLSFNPSDPSWSQTAWHEPIHNLGGMPGAWLADTLFFIFGVMAYTIPVIIVGGCWFAWRHQSSDEYIDYFAVSLRIIGVLALILTSCGLAAINADDIWYFASGGVIGSLLSTTLQPLLHSSGGTIALLCVWAAGLTLFTGWSWVTIAEKLGGWILNILTFASNRTRRDDTWVDEDEYEDDEEYEDENHGKQHESRRARILRGALARRKRLAEKFINPMGRQTDAALFSGKRMDDDEEITYTARGVAADPDDVLFSGNRATQPEYDEYDPLLNGAPITEPVAVAAAATTATQSWAAPVEPVTQTPPVASVDVPPAQPTVAWQPVPGPQTGEPVIAPAPEGYPQQSQYAQPAVQYNEPLQQPVQPQQPYYAPAAEQPAQQPYYAPAPEQPVAGNAWQAEEQQSTFAPQSTYQTEQTYQQPAAQEPLYQQPQPVEQQPVVEPEPVVEETKPARPPLYYFEEVEEKRAREREQLAAWYQPIPEPVKEPEPIKSSLKAPSVAAVPPVEAAAAVSPLASGVKKATLATGAAATVAAPVFSLANSGGPRPQVKEGIGPQLPRPKRIRVPTRRELASYGIKLPSQRAAEEKAREAQRNQYDSGDQYNDDEIDAMQQDELARQFAQTQQQRYGEQYQHDVPVNAEDADAAAEAELARQFAQTQQQRYSGEQPAGANPFSLDDFEFSPMKALLDDGPHEPLFTPIVEPVQQPQQPVAPQQQYQQPQQPVPPQPQYQQPQQPVAPQPQYQQPQQPVAPQQQYQQPQQPVAPQQQYQQPQQPVAPQPQDTLLHPLLMRNGDSRPLHKPTTPLPSLDLLTPPPSEVEPVDTFALEQMARLVEARLADFRIKADVVNYSPGPVITRFELNLAPGVKAARISNLSRDLARSLSTVAVRVVEVIPGKPYVGLELPNKKRQTVYLREVLDNAKFRDNPSPLTVVLGKDIAGEPVVADLAKMPHLLVAGTTGSGKSVGVNAMILSMLYKAQPEDVRFIMIDPKMLELSVYEGIPHLLTEVVTDMKDAANALRWCVNEMERRYKLMSALGVRNLAGYNEKIAEADRMMRPIPDPYWKPGDSMDAQHPVLKKEPYIVVLVDEFADLMMTVGKKVEELIARLAQKARAAGIHLVLATQRPSVDVITGLIKANIPTRIAFTVSSKIDSRTILDQAGAESLLGMGDMLYSGPNSTLPVRVHGAFVRDQEVHAVVQDWKARGRPQYVDGITSDSESEGGAGGFDGAEELDPLFDQAVQFVTEKRKASISGVQRQFRIGYNRAARIIEQMEAQGIVSEQGHNGNREVLAPPPFD | 3.531 ± 0.015 | 2.17 ± 0.29 | 1.2 ± 0.38 | 1.48 ± 0.059 | 0.895 ± 0.031 | 0.891 ± 0.042 | 1.36 ± 0.11 | 1.76 ± 0.29 | 1.39 ± 0.31 | 1.57 ± 0.13 | 1.48 ± 0.15 | 2.78 ± 1
6 | MSQFFYIHPDNPQQRLINQAVEIVRKGGVIVYPTDSGYALGCKIEDKNAMERICRIRQLPDGHNFTLMCRDLSELSTYSFVDNVAFRLMKNNTPGNYTFILKGTKEVPRRLLQEKRKTIGMRVPSNPIAQALLEALGEPMLSTSLMLPGSEFTESDPEEIKDRLEKQVDLIIHGGYLGQKPTTVIDLTDDTPVVVREGVGDVKPFL [P0AFR4] | 5.38 ± 0.1 | – | 6.202 ± 0.062 | 6.96 ± 1.2 | 6.51 ± 0.8 | 3.1 ± 0.11 | 6.18 ± 1.4 | 12.2 ± 1.1 | 5.38 ± 0.017 | 14.4 ± 1.2 | 4.64 ± 0.17 | 12.9 ± 1.6
7 | MSQLPGLSRETRESIAMYHLRVPQTEEELERYYQFRWEMLRKPLHQPKGSERDAWDAMAHHQMVVDEQGNLVAVGRLYINADNEASIRFMAVHPDVQDKGLGTLMAMTLESVARQEGVKRVTCSAREDAVEFFAKLGFVNQGEITTPTTTPIRHFLMIKPVATLDDILHRGDWCAQLQQAWYEHIPLSEKMGVRIQQYTGQKFITTMPETGNQNPHHTLFAGSLFSLATLTGWGLIWLMLRERHLGGTIILADAHIRYSKPISGKPHAVADLGALSGDLDRLARGRKARVQMQVEIFGDETPGAVFEGTYIVLPAKPFGPYEEGGNEEE [P0ADQ2] | 5.56 ± 0.43 | 4.46 ± 0.32 | 5.1 ± 0.92 | 4.93 ± 0.26 | 4.38 ± 0.27 | 2.8559 ± 0.0026 | 5.57 ± 0.27 | 9.83 ± 0.3 | 4.71 ± 0.12 | 8.84 ± 1.4 | 5.88 ± 0.23 | 11.8 ± 0.52
8 | MSQLVYFSSSSENTQRFIERLGLPAVRIPLNERERIQVDEPYILIVPSYGGGGTAGAVPRQVIRFLNDEHNRALLRGVIASGNRNFGEAYGRAGDVIARKCGVPWLYRFELMGTQSDIENVRKGVTEFWQRQPQNA [P0A772] | 4.46 ± 0.33 | – | – | – | – | – | – | – | – | – | – | –
9 | MSQPITRENFDEWMIPVYAPAPFIPVRGEGSRLWDQQGKEYIDFAGGIAVNALGHAHPELREALNEQASKFWHTGNGYTNEPVLRLAKKLIDATFADRVFFCNSGAEANEAALKLARKFAHDRYGSHKSGIVAFKNAFHGRTLFTVSAGGQPAYSQDFAPLPADIRHAAYNDINSASALIDDSTCAVIVEPIQGEGGVVPASNAFLQGLRELCNRHNALLIFDEVQTGVGRTGELYAYMHYGVTPDLLTTAKALGGGFPVGALLATEECARVMTVGTHGTTYGGNPLASAVAGKVLELINTPEMLNGVKQRHDWFVERLNTINHRYGLFSEVRGLGLLIGCVLNADYAGQAKQISQEAAKAGVMVLIAGGNVVRFAPALNVSEEEVTTGLDRFAAACEHFVSRGSS | 3.59 ± 0.43 | 3.17 ± 0.87 | 2.47 ± 0.25 | 2.97 ± 0.5 | 2.79 ± 0.15 | 3.106 ± 0.012 | 4.44 ± 0.17 | 7.4513 ± 0.0042 | 2.67 ± 0.12 | 3.532 ± 0.018 | 5.09 ± 0.52 | 9.766 ± 0.073
10 | MSQQVIIFDTTLRDGEQALQASLSVKEKLQIALALERMGVDVMEVGFPVSSPGDFESVQTIARQVKNSRVCALARCVEKDIDVAAESLKVAEAFRIHTFIATSPMHIATKLRSTLDEVIERAIYMVKRARNYTDDVEFSCEDAGRTPIADLARVVEAAINAGATTINIPDTVGYTMPFEFAGIISGLYERVPNIDKAIISVHTHDDLGLAVGNSLAAVHAGARQVEGAMNGIGERAGNCSLEEVIMAIKVRKDILNVHTAINHQEIWRTSQLVSQICNMPIPANKAIVGSGAFAHSSGIHQDGVLKNRENYEIMTPESIGLNQIQLNLTSRSGRAAVKHRMDEMGYKESEYNLDNLYDAFLKLADKKGQVFDYDLEALAFIGKQQEEPEHFRLDYFSVQSGSNDIATAAVKLACGEEVKAEAANGNGPVDAVYQAINRITEYNVELVKYSLTAKGHGKDALGQVDIVANYNGRRFHGVGLATDIVESSAKAMVHVLNNIWRAAEVEKELQRKAQHNENNKETV | 4.72 ± 0.57 | 4.48 ± 0.55 | 1.61 ± 0.08 | 1.77 ± 0.1 | 1.492 ± 0.0018 | 2.21 ± 0.067 | 3.71 ± 0.24 | 4.45 ± 0.23 | 1.63 ± 0.16 | 1.92 ± 0.043 | 3.83 ± 0.44 | 6.6 ± 0.52
